Measurements published in the supplement of paper PMC7877785.
± gives the uncertainty stated by the source.

Assay: self-splicing fitness, log relative to wild type (ln ratio); higher = more splicing; Tetrahymena group I intron in knt gene, E. coli kanamycin selection, DiMSum; sequences stand for … in CUCUCU…GGAGGGAAAAGUUAUCAGGCAUGCACCUGGUAGCUAGUCUUUAAACCAAUAGAUUGCAUCGGUUUAAAAGGCAAGACCGUCAAAUUGCGGGAAAGGGGUCAACAGCCGUUCAGUACCAAGUCUCAGGGGAAACUUUGAGAUGGCCUUGCAAAGGGUAUGGUAAUAAGCUGACGGACAUGGUCCUAACCACGCAGCCAAGUCCUAAGUCAACAGAUCUUCUGUUGAUAUGGAUGCAGUUCACAGACUAAAUGUCGGUCGGGGAAGAUGUAUUCUUCUCAUAAGAUAUAGUCGGACCUCUCCUUAAUGGGAGCUAGCGGAUGAAGUGAUGCAACACUGGAGCCGCUGGGAACUAAUUUGUAUGCGAAAGUAUAUUGAUUAGUUUUGGAGUACUCGUGGUCG
Procedure, shortened: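 Colonies from six replicate transformations of E. coli BL21(DE3) were pooled and amplicon-sequenced on an Illumina HiSeq 2500. The library placed an intron with all eight P1ex-region nucleotides randomised inside the knt kanamycin-resistance gene on pET-22b(+), and cells grew overnight at 37°C or 30°C on LB agar with or without 25 μg/mL kanamycin (plus 100 μg/mL carbenicillin, 50 μM IPTG, 0.2% rhamnose). Fitness is the DiMSum error-weighted combination of wild-type-normalised replicate fold changes, kanamycin versus none.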

| Sequence | self-splicing fitness (ln) (30 °C) | self-splicing fitness (ln) (37 °C) |
| --- | --- | --- |
| GAGAAGCAAUAUUACGCAUG | -1.99 ± 0.11 | -1.04 ± 0.14 |
| GAGAAGCAAUAUUACGCGAC | -2.78 ± 0.17 | -1.38 ± 0.15 |
| GAGAAGCAAUAUUACGCUAG | -1.66 ± 0.12 | -0.805 ± 0.15 |
| GAGAAGCAAUAUUACGCUGA | -1.49 ± 0.17 | -1.29 ± 0.15 |
| GAGAAGCAAUAUUACGCUUU | -3.35 ± 0.14 | -2.76 ± 0.14 |
| GAGAAGCAAUAUUACGGAGU | -3.2 ± 0.24 | 0.0737 ± 0.12 |
| GAGAAGCAAUAUUACGGCGA | 0.0811 ± 0.15 | -0.777 ± 0.12 |
| GAGAAGCAAUAUUACGGCUG | -0.733 ± 0.088 | -0.161 ± 0.12 |
| GAGAAGCAAUAUUACGGUAC | -2.92 ± 0.23 | -1.54 ± 0.21 |
| GAGAAGCAAUAUUACGGUGG | -2.14 ± 0.14 | -2.93 ± 0.25 |
| GAGAAGCAAUAUUACGUAGC | -3.47 ± 0.35 | -0.876 ± 0.21 |
| GAGAAGCAAUAUUACGUCCU | -1.59 ± 0.23 | – |
| GAGAAGCAAUAUUACGUCGG | -3.32 ± 0.19 | -2.35 ± 0.24 |
| GAGAAGCAAUAUUACGUGAC | -2.18 ± 0.12 | -1.29 ± 0.17 |
| GAGAAGCAAUAUUACGUGGC | -3.59 ± 0.17 | -0.933 ± 0.11 |
| GAGAAGCAAUAUUACGUGUU | -2.43 ± 0.098 | -1.53 ± 0.14 |
| GAGCAGCAAUAUUACGAAAG | -3.71 ± 0.33 | -1.93 ± 0.22 |
| GAGCAGCAAUAUUACGACCG | -2.42 ± 0.12 | -1.27 ± 0.15 |
| GAGCAGCAAUAUUACGACGA | -0.16 ± 0.15 | 0.077 ± 0.17 |
| GAGCAGCAAUAUUACGAGUG | -2.8 ± 0.17 | -1.09 ± 0.19 |
| GAGCAGCAAUAUUACGAUGC | -1.47 ± 0.092 | -0.514 ± 0.11 |
| GAGCAGCAAUAUUACGCCGA | -1.55 ± 0.17 | -0.726 ± 0.18 |

| Sequence | self-splicing fitness (ln) (30 °C) | self-splicing fitness (ln) (37 °C) |
| --- | --- | --- |
| GAGCAGCAAUAUUACGCUGC | -3.72 ± 0.18 | -3.06 ± 0.27 |
| GAGCAGCAAUAUUACGCUUA | -0.991 ± 0.077 | -0.238 ± 0.11 |
| GAGCAGCAAUAUUACGGACA | -2.64 ± 0.15 | -1.53 ± 0.12 |
| GAGCAGCAAUAUUACGGGGC | -3.57 ± 0.21 | -2.52 ± 0.25 |
| GAGCAGCAAUAUUACGGGUU | -2.44 ± 0.14 | -2.02 ± 0.16 |
| GAGCAGCAAUAUUACGGUUC | -3.92 ± 0.42 | -1.9 ± 0.38 |
| GAGCAGCAAUAUUACGUCCU | -0.165 ± 0.12 | -0.134 ± 0.16 |
| GAGCAGCAAUAUUACGUGGC | -3.71 ± 0.27 | -1.63 ± 0.14 |
| GAGCAGCAAUAUUACGUUAU | -1.77 ± 0.087 | -1.3 ± 0.12 |
| GAGGAGCAAUAUUACGAAAU | -3 ± 0.4 | -1.14 ± 0.23 |
| GAGGAGCAAUAUUACGAAUA | -3.68 ± 0.4 | -3.08 ± 0.38 |
| GAGGAGCAAUAUUACGAGAA | -1.98 ± 0.41 | -2.44 ± 0.33 |
| GAGGAGCAAUAUUACGAUGC | -2.85 ± 0.26 | -1.21 ± 0.21 |
| GAGGAGCAAUAUUACGAUUC | -3.4 ± 0.27 | -1.65 ± 0.22 |
| GAGGAGCAAUAUUACGCAUA | -1.86 ± 0.35 | – |
| GAGGAGCAAUAUUACGCCGA | -1.95 ± 0.33 | -1.77 ± 0.28 |
| GAGGAGCAAUAUUACGGACC | – | -0.0508 ± 0.35 |
| GAGGAGCAAUAUUACGGAUA | -3.62 ± 0.28 | -2.33 ± 0.37 |
| GAGGAGCAAUAUUACGGCCU | -1.99 ± 0.38 | – |
| GAGGAGCAAUAUUACGGCUG | -1.48 ± 0.15 | -1.88 ± 0.31 |
| GAGGAGCAAUAUUACGGGUC | -2.98 ± 0.17 | -3.24 ± 0.32 |
